Molecular target: T1, Bre1-LR (Bre1 residues 227–700, LBD and RING domains), 6× histidine tag (budding yeast, UniProt Q07457 227-700)
T1 construct: two Bre1 polypeptides form the dimeric coiled-coils of the LBD in the crystal structure; also called WT; source: E. coli BL21 Rosetta (DE3), purified (Ni-NTA, heparin, gel filtration)
T1 sequence (looked up): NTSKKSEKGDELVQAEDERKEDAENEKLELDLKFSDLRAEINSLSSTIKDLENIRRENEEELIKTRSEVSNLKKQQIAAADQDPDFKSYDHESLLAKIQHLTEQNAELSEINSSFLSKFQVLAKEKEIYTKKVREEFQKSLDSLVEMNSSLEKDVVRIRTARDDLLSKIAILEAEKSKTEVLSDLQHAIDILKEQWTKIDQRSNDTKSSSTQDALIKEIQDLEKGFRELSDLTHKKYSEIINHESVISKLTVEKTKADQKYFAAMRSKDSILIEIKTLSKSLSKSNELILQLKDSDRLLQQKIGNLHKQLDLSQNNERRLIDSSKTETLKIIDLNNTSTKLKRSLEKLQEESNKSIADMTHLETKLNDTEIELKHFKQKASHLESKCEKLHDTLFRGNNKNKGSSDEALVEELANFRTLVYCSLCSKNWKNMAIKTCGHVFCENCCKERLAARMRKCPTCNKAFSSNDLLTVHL
Assay: ITC; Lge1-CT (50–60 μM) injected into Bre1-LR (15 μM); 25°C, 20 mM TRIS (pH 7.5), 300 mM sodium chloride
Details: both partners purified

B1: Lge1-CT (Lge1 residues 261–332), intein-chitin binding domain (CBD) tag construct (domain or fragment, budding yeast, UniProt Q02796 261-332, looked up)
chain: KNVKKTNNTESECEKAREVFKESDSIDSALEELNLKINSNELELRLLNNQCDKHALNIQLTQEKLDSLLLMQ
notes: Lge1, budding yeast, residues 261-332; residues 268–331 resolved in the electron density; the intein-CBD tag is named on the protein in the pull-down; also called intein-CBD-fused Lge1-CT; intein-CBD-tagged Lge1-CT; source: E. coli BL21 Rosetta (DE3): cleared cell extract on chitin resin (pull-down); purified (chitin, heparin, gel filtration) for ITC and SPR; co-purified with Bre1-LR for the …
In the case of B1, the Kd is reported as 2.7 ± 1.7 nM, the dH is reported as -38.8 ± 0.6 kcal/mol and the “stoichiometry N” value is reported as 0.318 ± 0.002.
